In patent publication US20240000957A1 (published 2024):

T1: Mouse EphA3 Fc fusion (Mouse, UniProt P29319 21-540)
T1 construct: SPR; Sino Biologics 51122-M02H
T1 sequence (looked up): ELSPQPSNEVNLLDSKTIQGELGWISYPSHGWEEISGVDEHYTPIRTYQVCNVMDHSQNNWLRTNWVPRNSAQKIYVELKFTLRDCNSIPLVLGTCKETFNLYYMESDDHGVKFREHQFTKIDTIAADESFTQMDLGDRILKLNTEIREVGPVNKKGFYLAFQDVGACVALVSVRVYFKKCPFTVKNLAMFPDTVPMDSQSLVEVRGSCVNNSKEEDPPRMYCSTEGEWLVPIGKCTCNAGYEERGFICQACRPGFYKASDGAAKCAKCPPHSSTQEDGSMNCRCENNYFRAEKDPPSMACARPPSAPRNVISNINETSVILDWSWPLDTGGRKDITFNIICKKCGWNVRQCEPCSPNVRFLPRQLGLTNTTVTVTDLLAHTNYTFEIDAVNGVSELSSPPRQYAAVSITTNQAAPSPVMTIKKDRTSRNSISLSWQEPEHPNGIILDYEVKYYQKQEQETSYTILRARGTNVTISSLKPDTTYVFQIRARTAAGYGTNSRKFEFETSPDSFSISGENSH

T2: Rat EphB1 Fc fusion (Rat, UniProt P09759 18-540, limits assumed)
T2 construct: SPR; R&D Systems 1596-B1
T2 sequence (looked up): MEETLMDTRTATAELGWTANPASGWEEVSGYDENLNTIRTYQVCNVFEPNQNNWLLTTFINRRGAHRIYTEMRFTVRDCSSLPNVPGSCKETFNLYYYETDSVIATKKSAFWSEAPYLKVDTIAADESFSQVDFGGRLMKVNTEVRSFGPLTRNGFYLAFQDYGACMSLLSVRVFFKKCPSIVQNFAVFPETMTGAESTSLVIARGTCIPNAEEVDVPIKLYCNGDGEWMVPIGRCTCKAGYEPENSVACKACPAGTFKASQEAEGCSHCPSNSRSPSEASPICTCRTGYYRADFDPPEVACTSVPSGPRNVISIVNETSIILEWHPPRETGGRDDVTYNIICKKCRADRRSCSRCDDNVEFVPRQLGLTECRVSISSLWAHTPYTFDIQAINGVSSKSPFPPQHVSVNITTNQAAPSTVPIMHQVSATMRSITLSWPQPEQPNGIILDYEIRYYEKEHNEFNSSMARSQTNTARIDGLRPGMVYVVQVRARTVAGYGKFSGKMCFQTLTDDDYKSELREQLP

T3: Rat EphA3 Fc fusion (Rat, UniProt O08680 21-541)
T3 construct: Bought Fc fusion; also called Sino Biologics 80465-R02H; not shown: Fc of the bought fusion
T3 sequence (looked up): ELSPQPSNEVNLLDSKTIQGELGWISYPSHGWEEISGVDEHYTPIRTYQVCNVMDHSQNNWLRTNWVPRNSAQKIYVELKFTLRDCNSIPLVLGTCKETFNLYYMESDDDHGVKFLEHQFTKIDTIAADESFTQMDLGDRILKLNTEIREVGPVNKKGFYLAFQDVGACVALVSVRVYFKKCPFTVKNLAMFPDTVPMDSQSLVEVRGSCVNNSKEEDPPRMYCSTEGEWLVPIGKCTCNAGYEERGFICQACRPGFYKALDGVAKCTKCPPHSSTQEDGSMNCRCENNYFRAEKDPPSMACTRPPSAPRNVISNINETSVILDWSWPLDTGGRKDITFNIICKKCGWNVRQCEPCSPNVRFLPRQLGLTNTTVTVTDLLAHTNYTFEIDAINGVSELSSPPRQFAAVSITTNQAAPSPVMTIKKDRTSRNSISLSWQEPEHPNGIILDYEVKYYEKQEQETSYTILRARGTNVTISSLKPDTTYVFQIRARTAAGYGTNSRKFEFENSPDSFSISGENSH

T4: Rat EphB1 Fc fusion (Rat, UniProt P09759 18-540, limits assumed)
T4 construct: Bought Fc fusion; also called R&D Systems 1596-B1; not shown: Fc of the bought fusion
T4 sequence (looked up): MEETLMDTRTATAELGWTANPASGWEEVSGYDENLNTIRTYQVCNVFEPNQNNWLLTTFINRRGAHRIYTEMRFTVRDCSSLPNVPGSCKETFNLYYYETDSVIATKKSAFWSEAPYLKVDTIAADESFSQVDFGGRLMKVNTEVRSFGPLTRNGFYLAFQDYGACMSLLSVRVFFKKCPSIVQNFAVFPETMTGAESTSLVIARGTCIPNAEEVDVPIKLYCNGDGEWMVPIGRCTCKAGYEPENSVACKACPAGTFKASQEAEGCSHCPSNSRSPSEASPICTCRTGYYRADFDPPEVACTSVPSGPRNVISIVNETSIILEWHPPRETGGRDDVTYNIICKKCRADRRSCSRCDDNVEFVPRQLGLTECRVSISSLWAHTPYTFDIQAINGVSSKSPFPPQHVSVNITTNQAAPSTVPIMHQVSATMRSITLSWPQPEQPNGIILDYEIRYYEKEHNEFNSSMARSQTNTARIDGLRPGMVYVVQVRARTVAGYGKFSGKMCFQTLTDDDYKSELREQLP

T5: Mouse EphA3 Fc fusion (Mouse, UniProt P29319 21-540)
T5 construct: Bought Fc fusion; also called Sino Biologics 51122-M02H; not shown: Fc of the bought fusion
T5 sequence (looked up): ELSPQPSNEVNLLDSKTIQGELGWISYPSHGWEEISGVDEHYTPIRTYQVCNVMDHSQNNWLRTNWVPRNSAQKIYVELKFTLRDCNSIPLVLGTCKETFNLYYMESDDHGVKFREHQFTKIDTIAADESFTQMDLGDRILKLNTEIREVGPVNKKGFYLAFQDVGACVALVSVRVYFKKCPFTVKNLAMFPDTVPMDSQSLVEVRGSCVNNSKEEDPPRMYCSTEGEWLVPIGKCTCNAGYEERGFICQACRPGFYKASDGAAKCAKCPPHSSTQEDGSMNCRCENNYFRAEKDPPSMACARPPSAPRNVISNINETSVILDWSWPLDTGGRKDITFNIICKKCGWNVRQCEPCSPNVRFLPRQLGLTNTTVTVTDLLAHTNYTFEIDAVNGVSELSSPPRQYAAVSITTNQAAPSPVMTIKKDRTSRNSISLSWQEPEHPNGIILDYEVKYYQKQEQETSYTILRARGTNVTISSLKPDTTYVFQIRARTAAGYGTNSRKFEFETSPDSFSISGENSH


Assays:
[1] = biological target: T6, Human EphA2 (Ecto), C-terminal polyHis (Human, UniProt P29317 24-537); test: FP competition vs Reference Compound C (Study 2)
T6 construct: extracellular domain; R&D systems 3035-A2 or in-house
T6 sequence (P29317 24-537): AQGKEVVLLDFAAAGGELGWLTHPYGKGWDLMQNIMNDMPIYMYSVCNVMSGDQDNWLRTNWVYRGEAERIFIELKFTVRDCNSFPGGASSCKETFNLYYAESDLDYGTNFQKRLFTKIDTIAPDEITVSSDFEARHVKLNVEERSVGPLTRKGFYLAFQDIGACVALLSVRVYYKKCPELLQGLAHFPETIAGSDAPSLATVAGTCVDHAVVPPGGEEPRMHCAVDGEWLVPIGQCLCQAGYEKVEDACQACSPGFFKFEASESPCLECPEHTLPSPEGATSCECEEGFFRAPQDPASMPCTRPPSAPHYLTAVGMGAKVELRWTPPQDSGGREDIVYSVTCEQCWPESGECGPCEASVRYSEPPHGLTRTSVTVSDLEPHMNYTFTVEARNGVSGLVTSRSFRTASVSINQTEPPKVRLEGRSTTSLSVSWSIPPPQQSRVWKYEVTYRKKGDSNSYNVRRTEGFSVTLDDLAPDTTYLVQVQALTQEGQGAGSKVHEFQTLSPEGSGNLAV

[2] = biological target: T7, Mouse EphA2 (Ecto) (Mouse, UniProt Q03145 26-538); test: FP competition vs Reference Compound C (Study 2)
T7 construct: extracellular domain; Fluorescence polarisation assays; not shown: Fc fusion (R&D Systems 639-A2) or C-terminal polyHis (Sino Biological 50586-M08H)
T7 sequence (Q03145 26-538): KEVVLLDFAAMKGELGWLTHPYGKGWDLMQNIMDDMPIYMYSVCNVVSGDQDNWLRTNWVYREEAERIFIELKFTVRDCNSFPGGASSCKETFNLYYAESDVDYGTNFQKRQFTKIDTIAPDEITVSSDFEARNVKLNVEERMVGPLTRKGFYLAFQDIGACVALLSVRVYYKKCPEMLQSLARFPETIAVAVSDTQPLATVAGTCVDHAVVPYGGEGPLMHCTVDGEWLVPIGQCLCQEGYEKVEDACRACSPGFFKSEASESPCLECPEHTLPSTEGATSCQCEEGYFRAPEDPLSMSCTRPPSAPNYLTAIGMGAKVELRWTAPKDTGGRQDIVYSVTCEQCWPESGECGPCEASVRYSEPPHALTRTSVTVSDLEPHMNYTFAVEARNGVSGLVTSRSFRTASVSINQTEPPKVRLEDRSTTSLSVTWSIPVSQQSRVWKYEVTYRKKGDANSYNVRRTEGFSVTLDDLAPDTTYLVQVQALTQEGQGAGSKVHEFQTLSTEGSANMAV

[3] = biological target: T8, Rat EphA2 (ligand binding), C-terminal polyHis (Rat); test: FP competition vs Reference Compound C (Study 2)
T8 construct: In-house

[4] = biological target: T1, Mouse EphA3 Fc fusion; test: SPR
[5] = biological target: T2, Rat EphB1 Fc fusion; test: SPR
[6] = biological target: T9, Human EphA2 (Human, UniProt P29317 24-537, limits assumed, biotinylated, 0.95 mol biotin/monomer); test: SPR, biotinylated EphA2 on streptavidin chip
T9 construct: also called Eph receptor tyrosine kinase A2
T9 sequence (P29317 24-537 limits assumed): as the sequence (P29317 24-537) above

[7] = biological target: Rat EphA2 (Rat, UniProt D3ZBN3 23-538, biotinylated, 1.4 mol biotin/monomer); test: SPR, biotinylated EphA2 on streptavidin chip
[8] = biological target: T3, Rat EphA3 Fc fusion; test: SPR, Fc-tagged protein captured by anti-human IgG
[9] = biological target: T4, Rat EphB1 Fc fusion; test: SPR, Fc-tagged protein captured by anti-human IgG
[10] = biological target: T5, Mouse EphA3 Fc fusion; test: SPR, Fc-tagged protein captured by anti-human IgG
[11] = biological target: T10, Mouse EphA4 Fc fusion (Mouse, UniProt Q03137 20-547); test: SPR, Fc-tagged protein captured by anti-human IgG
T10 construct: Bought Fc fusion; also called Sino Biologics 50575-M02H; not shown: Fc of the bought fusion
T10 sequence (Q03137 20-547 limits assumed): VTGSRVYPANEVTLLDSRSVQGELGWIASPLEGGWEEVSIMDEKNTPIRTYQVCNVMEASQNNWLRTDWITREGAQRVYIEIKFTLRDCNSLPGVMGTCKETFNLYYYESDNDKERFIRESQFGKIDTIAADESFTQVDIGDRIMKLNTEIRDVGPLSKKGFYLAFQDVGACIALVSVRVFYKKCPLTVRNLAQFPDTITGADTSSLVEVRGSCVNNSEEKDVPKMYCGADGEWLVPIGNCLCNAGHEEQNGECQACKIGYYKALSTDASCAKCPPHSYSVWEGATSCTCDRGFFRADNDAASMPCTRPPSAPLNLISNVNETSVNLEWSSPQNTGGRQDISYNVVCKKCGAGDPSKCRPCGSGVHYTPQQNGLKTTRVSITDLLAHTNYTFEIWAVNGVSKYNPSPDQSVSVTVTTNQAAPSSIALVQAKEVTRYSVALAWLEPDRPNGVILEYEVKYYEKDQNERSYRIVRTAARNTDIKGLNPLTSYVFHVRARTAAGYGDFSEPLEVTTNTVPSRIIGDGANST

[12] = biological target: T11, Mouse EphA2 Fc fusion (Mouse, UniProt Q03145 26-535, limits assumed); test: SPR, Fc-tagged EphA2 captured by anti-human IgG
T11 construct: Bought Fc fusion; also called R&D Systems 639-A2; not shown: Fc of the bought fusion
T11 sequence (Q03145 26-535 limits assumed): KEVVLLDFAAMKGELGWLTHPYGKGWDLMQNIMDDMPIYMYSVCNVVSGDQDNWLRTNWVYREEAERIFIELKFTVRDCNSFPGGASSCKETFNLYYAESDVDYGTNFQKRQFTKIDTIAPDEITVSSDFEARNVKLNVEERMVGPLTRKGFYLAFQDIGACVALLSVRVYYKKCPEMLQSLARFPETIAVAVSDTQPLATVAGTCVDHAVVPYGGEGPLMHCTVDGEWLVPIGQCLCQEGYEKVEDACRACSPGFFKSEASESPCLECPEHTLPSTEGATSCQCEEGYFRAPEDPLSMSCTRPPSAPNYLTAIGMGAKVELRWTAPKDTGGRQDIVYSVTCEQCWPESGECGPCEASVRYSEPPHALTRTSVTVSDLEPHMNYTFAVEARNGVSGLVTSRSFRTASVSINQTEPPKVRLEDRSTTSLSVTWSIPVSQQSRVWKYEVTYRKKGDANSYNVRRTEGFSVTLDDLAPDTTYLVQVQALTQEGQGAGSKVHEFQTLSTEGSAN

Binder | Ki [1] | Ki [2] | Ki [3] | binding result [4] | binding result [5] | Kd [6] | t1/2 [6] | Kd [7] | t1/2 [7] | binding result [8] | binding result [9] | binding result [10] | binding result [11] | Kd [12] | t1/2 [12]
AXDCPLVNPLCLHPGWTC (not fully specified; as BCY6014 (N-terminal (β-Ala)-Sar10; HArg; TATA scaffold on the 3 Cys) + ValCit-MMAE, Bicycle drug conjugate (BDC)) | 9.9 nM | 34.2 nM | 13.4 nM | no binding | no binding |  |  |  |  |  |  |  |  |  | 
AXDCPLVNPLCLHPGWTC (not fully specified; as BCY6014 (N-terminal (β-Ala)-Sar10; HArg; TATA scaffold on the 3 Cys) + DM1-SS(SO3H)-, Bicycle drug conjugate (BDC)) | 10.5 nM | 34.1 nM | 13.9 nM | no binding | no binding |  |  |  |  |  |  |  |  |  | 
AXDCPLVNPLCLHPGWTC (not fully specified; N-terminal (β-Ala)-Sar10 spacer precedes SEQ ID NO: 11; HArg (homoarginine) at residue 2 of SEQ ID NO: 11; three Cys cyclised on the TATA scaffold; ValCit-MMAE (MMAE-PABC-Cit-Val-glutarate) on the N-terminal amine) |  |  |  |  |  | 3.41 nM | 3.5 min | 166 nM | 2.6 min | no binding (tested: 20 µM) | no binding (tested: 20 µM) | no binding (tested: 20 µM) | no binding (tested: 20 µM) | 21.8 nM | 1.8 min
AXDCPLVNPLCLHPGWTC (not fully specified; N-terminal (β-Ala)-Sar10 spacer precedes SEQ ID NO: 11; HArg (homoarginine) at residue 2 of SEQ ID NO: 11; three Cys cyclised on the TATA scaffold; DM1-SS(SO3H)- (DM1-SO3H-SPDB) on the N-terminal amine) |  |  |  |  |  | 2.42 nM | 4.8 min | 28.8 nM | 3.2 min | no binding (tested: 20 µM) | no binding (tested: 20 µM) | no binding (tested: 20 µM) | no binding (tested: 20 µM) | 18.3 nM | 1.9 min
